Experiments:
[1] = test system: hemoglobin (HGB); assay: Example 22 non-human primate study, hemoglobin (HGB); format: in vivo, cynomolgus monkey
Description: (§1) LNP formulations, shown in Table 31 (above), were administered to non-human primates (NHP) (cynomolgus monkey) (n=2) as intravenous injection (IV). The NHP were administered a single modified mRNA IV dose of 0.5 mg/kg, 0.05 mg/kg or 0.005 mg/kg of G-CSF or EPO in a dose volume of 0.5 mL/kg. The NHPs were bled before dosing with the modified mRNA LNP formulations to determine protein expression in the serum and a baseline complete blood count. After administration with the G-CSF modified mRNA formulation the NHP were bled at 8, 24, 48 and 72 hours to determined protein expression. After administration with the EPO modified mRNA formulation the NHP were bled at 8, 24, 48, 72 hours and 7 days to determined protein expression.

[2] = test system: G-CSF; assay: Example 16 lipid nanoparticle in vivo study, serum G-CSF ELISA; parameters: species or system mice; conditions: for G-CSF Serum Concentration 8-12 hours after administration: IV (LNP); for G-CSF Protein Expression, Conc: mice IV LNP, serum 8 hrs
Description: Mice were sacrificed at 8 hrs after dosing. […] Protein expression was determined by ELISA.
As used in Table 30, the symbol “˜” means about.

[3] = test system: aspartate transaminase (AST); assay: Example 22 non-human primate study, serum chemistry aspartate transaminase (AST); format: in vivo, cynomolgus monkey
Description: as §1

[4] = Female NHP, 0.005 mg/kg, 7 days
[5] = Female NHP, 0.005 mg/kg, Pre-dose
[6] = Female NHP, 0.05 mg/kg, Pre-dose
[7] = Female NHP, 0.5 mg/kg, Pre-dose
[8] = Male NHP, 0.005 mg/kg, Pre-dose

B1: G-CSF: human G-CSF mRNA SEQ ID NO: 6, polyA ~160 nt, Cap1, fully modified with 5-methylcytosine and pseudouridine (nucleic acid, listed as Homo sapiens)
chain: GGGAAAUAAGAGAGAAAAGAAGAGUAAGAAGAAAUAUAAGAGCCACCAUGGCCGGUCCCGCGACCCAAAGCCCCAUGAAACUUAUGGCCCUGCAGUUGCUGCUUUGGCACUCGGCCCUCUGGACAGUCCAAGAAGCGACUCCUCUCGGACCUGCCUCAUCGUUGCCGCAGUCAUUCCUUUUGAAGUGUCUGGAGCAGGUGCGAAAGAUUCAGGGCGAUGGAGCCGCACUCCAAGAGAAGCUCUGCGCGACAUACAAACUUUGCCAUCCCGAGGAGCUCGUACUGCUCGGGCACAGCUUGGGGAUUCCCUGGGCUCCUCUCUCGUCCUGUCCGUCGCAGGCUUUGCAGUUGGCAGGGUGCCUUUCCCAGCUCCACUCCGGUUUGUUCUUGUAUCAGGGACUGCUGCAAGCCCUUGAGGGAAUCUCGCCAGAAUUGGGCCCGACGCUGGACACGUUGCAGCUCGACGUGGCGGAUUUCGCAACAACCAUCUGGCAGCAGAUGGAGGAACUGGGGAUGGCACCCGCGCUGCAGCCCACGCAGGGGGCAAUGCCGGCCUUUGCGUCCGCGUUUCAGCGCAGGGCGGGUGGAGUCCUCGUAGCGAGCCACCUUCAAUCAUUUUUGGAAGUCUCGUACCGGGUGCUGAGACAUCUUGCGCAGCCGUGAAGCGCUGCCUUCUGCGGGGCUUGCCUUCUGGCCAUGCCCUUCUUCUCUCCCUUGCACCUGUACCUCUUGGUCUUUGAAUAAAGCCUGAGUAGGAAG
modifications: polyA ~160, Cap1, 5mC/pseudouridine modified
With B1 the HGB ([1]; Female NHP, 0.005 mg/kg, 14/18 days) was 129 g/L, the HGB ([1]; Female NHP, 0.005 mg/kg, 24 hours) was 127 g/L and the HGB ([1]; Female NHP, 0.005 mg/kg, 3 days) was 127 g/L. The HGB [1, 4] was 129 g/L, the HGB [1, 5] was 129 g/L and the HGB ([1]; Female NHP, 0.05 mg/kg, 14/18 days) was 123 g/L. It also gave an HGB ([1]; Female NHP, 0.05 mg/kg, 24 hours) of 117 g/L, an HGB ([1]; Female NHP, 0.05 mg/kg, 3 days) of 115 g/L and an HGB ([1]; Female NHP, 0.05 mg/kg, 7 days) of 116 g/L. The HGB [1, 6] was 129 g/L, the HGB ([1]; Female NHP, 0.5 mg/kg, 14/18 days) was 113 g/L and the HGB ([1]; Female NHP, 0.5 mg/kg, 24 hours) was 112 g/L. It also gave an HGB ([1]; Female NHP, 0.5 mg/kg, 3 days) of 114 g/L, an HGB ([1]; Female NHP, 0.5 mg/kg, 7 days) of 116 g/L and an HGB [1, 7] of 129 g/L. The HGB ([1]; Male NHP, 0.005 mg/kg, 14/18 days) was 118 g/L, the HGB ([1]; Male NHP, 0.005 mg/kg, 24 hours) was 117 g/L and the HGB ([1]; Male NHP, 0.005 mg/kg, 3 days) was 116 g/L. For the same molecule, the HGB ([1]; Male NHP, 0.005 mg/kg, 7 days) was 116 g/L, the HGB [1, 8] was 128 g/L and the HGB ([1]; Male NHP, 0.05 mg/kg, 14/18 days) was 134 g/L. For the same molecule, the HGB ([1]; Male NHP, 0.05 mg/kg, 24 hours) was 122 g/L, the HGB ([1]; Male NHP, 0.05 mg/kg, 3 days) was 126 g/L and the HGB ([1]; Male NHP, 0.05 mg/kg, 7 days) was 126 g/L. The HGB ([1]; Male NHP, 0.05 mg/kg, Pre-dose) was 137 g/L, the HGB ([1]; Male NHP, 0.5 mg/kg, 14/18 days) was 98 g/L and the HGB ([1]; Male NHP, 0.5 mg/kg, 24 hours) was 113 g/L. It also gave an HGB ([1]; Male NHP, 0.5 mg/kg, 3 days) of 118 g/L, an HGB ([1]; Male NHP, 0.5 mg/kg, 7 days) of 115 g/L and an HGB ([1]; Male NHP, 0.5 mg/kg, Pre-dose) of 133 g/L. The “G-CSF Serum Concentration 8-12 hours after administration” value (shortened to “G-CSF Serum Concentration 8-12 hours”) ([2]; 1 ug) was ~20,000 pg/ml, the “G-CSF Serum Concentration 8-12 hours” value ([2]; 10 ug) was ~1,000,000 pg/ml and the “G-CSF Serum Concentration 8-12 hours” value ([2]; 100 ug) was ~5,000,000 pg/ml. For the same molecule, the “G-CSF Protein Expression, Conc” value ([2]; 10 ug) was 1204.82 ng/mL, the “G-CSF Protein Expression, Conc” value ([2]; 100 ug) was 4722.20 ng/mL and the AST ([3]; Female NHP, 0.005 mg/kg, 2 days) was 34 U/L. It also gave an AST ([3]; Female NHP, 0.005 mg/kg, 4 days) of 36 U/L, an AST [3, 4] of 31 U/L and an AST ([3]; Female NHP, 0.005 mg/kg, 14 days) of 20 U/L. It also gave an AST [3, 5] of 54 U/L, an AST ([3]; Female NHP, 0.05 mg/kg, 2 days) of 34 U/L and an AST ([3]; Female NHP, 0.05 mg/kg, 4 days) of 42 U/L. For the same molecule, the AST ([3]; Female NHP, 0.05 mg/kg, 7 days) was 52 U/L, the AST ([3]; Female NHP, 0.05 mg/kg, 14 days) was 20 U/L and the AST [3, 6] was 33 U/L. It also gave an AST ([3]; Female NHP, 0.5 mg/kg, 2 days) of 294 U/L, an AST ([3]; Female NHP, 0.5 mg/kg, 4 days) of 63 U/L and an AST ([3]; Female NHP, 0.5 mg/kg, 7 days) of 68 U/L. It also gave an AST ([3]; Female NHP, 0.5 mg/kg, 14 days) of 67 U/L, an AST [3, 7] of 47 U/L and an AST ([3]; Male NHP, 0.005 mg/kg, 2 days) of 70 U/L. It also gave an AST ([3]; Male NHP, 0.005 mg/kg, 4 days) of 39 U/L, an AST ([3]; Male NHP, 0.005 mg/kg, 7 days) of 28 U/L and an AST ([3]; Male NHP, 0.005 mg/kg, 14 days) of 39 U/L. It also gave an AST [3, 8] of 35 U/L, an AST ([3]; Male NHP, 0.05 mg/kg, 2 days) of 95 U/L and an AST ([3]; Male NHP, 0.05 mg/kg, 4 days) of 69 U/L. It also gave an AST ([3]; Male NHP, 0.05 mg/kg, 7 days) of 62 U/L, an AST ([3]; Male NHP, 0.05 mg/kg, 14 days) of 59 U/L and an AST ([3]; Male NHP, 0.05 mg/kg, Pre-dose) of 99 U/L. It also gave an AST ([3]; Male NHP, 0.5 mg/kg, 2 days) of 196 U/L, an AST ([3]; Male NHP, 0.5 mg/kg, 4 days) of 67 U/L and an AST ([3]; Male NHP, 0.5 mg/kg, 7 days) of 53 U/L.
